Data as given in patent US20240240209A1, “SYNTHESIS OF ENANTIOPURE CIS-A-IRONE FROM A RENEWABLE CARBON SOURCE” (Agency for Science, Technology and Research, priority 2021, published 2024).
“Also recorded” adds a separate entry of the source.

Test: Cell lysate reaction of pMT enzymes with psi-ionone, irones quantified by HS-SPME-GCMS
Type: biochemical
Conditions: for irone production / methyltransferase activity towards psi-ionone (in words): cell lysate reaction, vs parent or control; for cis-α-irone content (percentage of cis-α-irone in the irone mixture): cell extracts with psi-ionone; for fold change in cis-α-irone produced: AUC vs non-mutated (=1)
Protocol: Using the structure of pMT1 in complex with the cofactor S-adenosyl-L-homocysteine (SAH) and the substrate teleocidin A1 (PDB id: 5GM2) as a template, pMT1 bound to each of the four isomers of α-irone was modelled with the aim of identifying amino acid residues that could be critical to increase cis-α-irone or decrease trans-α-irone production (FIGS. 2d and 2e). […] Site-directed mutagenesis of the 24 residues was carried out with degenerative primers. Subsequently, the mutants of each site were pooled together, and examined if the activity or product-selectivity of the pooled mutants were increased (FIG. 8). This reduced the number of screening reactions to 24, which is manageable when a high-throughput enzymatic assay is not available. […] One residue was chosen and subjected to site-saturation mutagenesis by using degenerative primers containing NNN or NNK. The plasmid library was then transformed into E. coli BL21 (DE3) cells and plated on agar plate containing autoinduction media^19. […] Subsequently, the colonies were collected and resuspended in phosphate saline buffer. Equal number of cells was taken for lysis and cell lysate reactions were carried out in capped SPME-GC vials at 28° C. for 2 days. HS-SPME-GCMS analysis was used to quantify the amount of irones produced by each pooled-colony reaction. […] 24 residues including the control Gly85 (G85m) were subjected to site-saturation mutagenesis, using pMT1 as the template. […] The amount of cis-α-irone produced was estimated based on the area under the gas chromatogram curve (AUC). The fold change is calculated by comparing the AUC of cis-α-irone produced by the mutant enzyme to that of non-mutated.
For each pMT mutant, it was transformed into BL21 and grown in autoinduction media with 5 mM lactose at 20° C. for 36 hrs. Then, cells were pelleted and concentrated 10 times by adding 1 ml of PBS. The OD600 was measured and 40*600 OD*ul cells were transferred into a new 1.5 ml tube. The cells were spun down and resuspended in 600 μl of lysis buffer (1×DNase buffer, 150 mM NaCl, 0.5% glycerol, 1 mg/ml lysozyme and 20U of DNasel). The cells were incubated for 2 hrs at 20° C. with shaking at 300 rpm. Following that, 2 cycles of freeze-thaw was done to completely lyse the cells. At the end of the 2nd thawing, the cell lysate was used to setup a 1 ml reaction in 2 ml GC vials. The reaction consisted of 50 mM Tris (pH7), 10 mM MgCl2, 60 mM NaCl, 0.2 mM SAM and 10 mg/L of psi-ionone and caryophyllene each. To this, 500 μl of cell lysate was added while the remaining 100 μl was used for SDS-PAGE to analyze the total and soluble protein expression. The reaction was incubated for 2 days at 28° C., 300 rpm prior to extraction of cis-α-irone with 500 μl hexane. From this, 20 μl of organic layer was taken into 180 μl hexane for GCMS analysis.
For the mutant pMT activity screening, the reactants and products were analyzed by head space solid phase microextraction (HS-SPME) coupled with an Agilent 5977B gas chromatography (GC) system equipped with Agilent DB-5 ms column (30 m×250 μm×0.25 μm) and mass spectrometry (MS) with high efficiency source. The reaction mixtures were carried out in SPME vials which were incubated at 60° C. for 20 mins to allow the release of volatile compounds. The absorbent fiber (50/30 μm divinylbenzol/carboxen/polydimethyl-SPME fiber, SUPELCO) was then exposed to the headspace of the vial for 20 mins. The extracted analytes were desorbed at the GC inlet at 250° C. for 1 min and injected into GC with a split ratio of 200:1. The GC oven temperature increased from 50° C. to 140° C. at a rate of 10° C./min and held at 140° C. for 10 min. Subsequently, the temperature was increased to 320° C. at a rate of 60° C./min and held at 320° C. for 2 mins.

B1: ScMT: about 66% homologous enzyme from Streptomyces clavuligerus (protein, listed as Streptomyces clavuligerus)
chain: MPQELAGELRVTAAQVGAWYDQFGDIYHQTLGESIHCGLWFPPDEPHPARVDLVSLSSEAQDRFTDYLIKTLDPHADQHVLDIGCGTGRSALRLSQQRGAKVTGVAISKVQIEHANRLAETHDLSDRLVFEHADAMHLPYEDESFDSAWAIESLCHMDRAKALREAYRVLRPGGDFLLLESVLTNPLTEAEATSLDTMLAANTPLWLPEFFELITRAGFETLELKDLSANLAMTMNVLELVCHDRREEFTRRFGAEFTELLMAGLPEARNITARKTRFFMLLLRKPPVPAN
- irone production / methyltransferase activity towards psi-ionone (in words): not active towards psi-ionone

B2: pMT11: pMT1 with Y200F S182E L273V L180A A202L Y65F C156D T91P (protein)
chain: MPQEARTPQQQVTADEVGDWYDKFGEVYHLTLGESVHCGLWFPPDAPVPQDMELVTMSSQAQDRFTDYLIETLDPKAGQHLLDIGCGTGRPALKAARQRGIAVTGVAVSKEQIAAANRLAAGHGLTERLTFEVADAMRLPYEDESFDCAWAIESLDHMDRAKALGEAWRVLKPGGDLLVAEEVVTEELTEPETALFETLFALNVPPRLGEFFDIVSGAGFHTLSLKDLSANLAMTMNVFALGVYSRRAEFTERFGAEFVDGLLAGLGSAQETVIRKTRFFMATLRKPAV
modifications: Modified from pMT1
notes: pMT1 with Y200F S182E L273V L180A A202L Y65F C156D T91P
- irone production / methyltransferase activity towards psi-ionone (in words): improved cis-α-irone production both by the fold change and percentage

B3: pMT3: pMT1 with Y200F S182E (protein)
chain: MPQEARTPQQQVTADEVGDWYDKFGEVYHLTLGESVHCGLWFPPDAPVPQDMELVTMSSQAQDRYTDYLIETLDPKAGQHLLDIGCGTGRTALKAARQRGIAVTGVAVSKEQIAAANRLAAGHGLTERLTFEVADAMRLPYEDESFDCAWAIESLCHMDRAKALGEAWRVLKPGGDLLVLEEVVTEELTEPETALFETLFAANVPPRLGEFFDIVSGAGFHTLSLKDLSANLAMTMNVFALGVYSRRAEFTERFGAEFVDGLLAGLGSAQETLIRKTRFFMATLRKPAV
modifications: Modified from pMT1
notes: pMT1 with Y200F S182E
- cis-α-irone content (percentage of cis-α-irone in the irone mixture): 74%
- irone production / methyltransferase activity towards psi-ionone (in words): significant increase in cis-α-irone was detected; also recorded: predominantly 1R5S was produced
- fold change in cis-α-irone produced (pMT2_S182 mutants): 5.4
- fold change in cis-α-irone produced (pMT3_E153 mutants): 1.0
- fold change in cis-α-irone produced (pMT3_L273 mutants): 1.0
- improvement of total turnover number (TTN) (vs pMT1, TTN = cis-α-irone produced / soluble pMT enzyme): more than 1,000 fold

B4: pMT14: pMT13 with E197R (protein)
chain: MPQEARTPQQQVTADEVGDWYDKFGEVYHLTLGESVHCGLWFPPDAPVPQDMELVTMSSQAQDRFTDYLIETLDPKAGQHLLDIGCGTGRPALKAARQRGIAVTGVAVSKEQIAAANRLAAGHGLTERLTFEVADAMRLPYEDESFDCAWAIESLDHMDRAKALGEAWRVLKPGGDLLVAEEVVTEELTEPETALFRTLFALNVPPRLGEFFDIVSGAGFHTLSLKDLSADLAMTMNVFALGVAARRAEFTERFGAEFVDGLLAGLPSAQETVIRKTRFFMATLRKPAV
modifications: Modified from pMT1
notes: pMT13 with E197R
- irone production / methyltransferase activity towards psi-ionone (in words): reduced the fold change of cis-α-irone to a similar level as pMT10

B5: pMT4: pMT1 with Y200F S182E L273V (protein)
chain: MPQEARTPQQQVTADEVGDWYDKFGEVYHLTLGESVHCGLWFPPDAPVPQDMELVTMSSQAQDRYTDYLIETLDPKAGQHLLDIGCGTGRTALKAARQRGIAVTGVAVSKEQIAAANRLAAGHGLTERLTFEVADAMRLPYEDESFDCAWAIESLCHMDRAKALGEAWRVLKPGGDLLVLEEVVTEELTEPETALFETLFAANVPPRLGEFFDIVSGAGFHTLSLKDLSANLAMTMNVFALGVYSRRAEFTERFGAEFVDGLLAGLGSAQETVIRKTRFFMATLRKPAV
modifications: Modified from pMT1
notes: pMT1 with Y200F S182E L273V
- cis-α-irone content (percentage of cis-α-irone in the irone mixture): ~80%
- irone production / methyltransferase activity towards psi-ionone (in words): highest cis-α-irone and lowest trans-α-irone production
- fold change in cis-α-irone produced (pMT3_L273 mutants): 1.5
- fold change in cis-α-irone produced (pMT4_L180 mutants): 1
- fold change in cis-α-irone produced (pMT4_T277 mutants): 1.0

B6: P191S: pMT12 with P191S (protein)
chain: MPQEARTPQQQVTADEVGDWYDKFGEVYHLTLGESVHCGLWFPPDAPVPQDMELVTMSSQAQDRFTDYLIETLDPKAGQHLLDIGCGTGRPALKAARQRGIAVTGVAVSKEQIAAANRLAAGHGLTERLTFEVADAMRLPYEDESFDCAWAIESLDHMDRAKALGEAWRVLKPGGDLLVAEEVVTEELTESETALFETLFALNVPPRLGEFFDIVSGAGFHTLSLKDLSADLAMTMNVFALGVYSRRAEFTERFGAEFVDGLLAGLGSAQETVIRKTRFFMATLRKPAV
modifications: Modified from pMT1
- in-vitro production of cis-α-irone (in words) (single mutations vs parent (pMT7 or pMT12)): moderate increase

B7: pMT13: pMT12 with Y244A S245A G267P (protein)
chain: MPQEARTPQQQVTADEVGDWYDKFGEVYHLTLGESVHCGLWFPPDAPVPQDMELVTMSSQAQDRFTDYLIETLDPKAGQHLLDIGCGTGRPALKAARQRGIAVTGVAVSKEQIAAANRLAAGHGLTERLTFEVADAMRLPYEDESFDCAWAIESLDHMDRAKALGEAWRVLKPGGDLLVAEEVVTEELTEPETALFETLFALNVPPRLGEFFDIVSGAGFHTLSLKDLSADLAMTMNVFALGVAARRAEFTERFGAEFVDGLLAGLPSAQETVIRKTRFFMATLRKPAV
modifications: Modified from pMT1
notes: pMT12 with Y244A S245A G267P
- irone production / methyltransferase activity towards psi-ionone (in words): maintained the percentage of cis-α-irone produced while further improving the absolute amount produced

B8: SaMT: methyltransferase from Streptomyces albireticuli, about 68% sequence identity to pMT1 (protein, listed as Streptomyces albireticuli)
chain: MPQESAQELKVTADEVGDWYDRFGDIYHETLGESVHCGLWFPPDEPHPTSMDLVDLSSRAQDRYTDYLIETLDPRPGDHVLDIGCGTGRSALRLVQQRDARVTGVAISKEQIARADRLANEHGLTDRLTFAYADAQALPYEDGTFDRAWAVESICHMDRAKALQEAWRVLRPGGDLMVLESVLTGELTAEDTAVFQVMLASNLPPTLPEFFGLVGDAGFETLELKDLSANLAMTMNVMALVCHDRKEEFTERFGAEFMEGVVQGLPKAREVVARKTRFFLVMLRKPLA
- irone production / methyltransferase activity towards psi-ionone (in words): converted psi-ionone to predominantly trans-α-irone
